These results are taken from patent US20240116985A1 (published 2024).

Starred links: 1 amine or outer side, 2 acyl side, 3 side chain; linkers in the order of their positions; H or OH if unused. Positions of bridges follow the written chain, without caps; N, C: chain ends. Non-standard residues stand in square brackets, D forms with d. Primed or numbered codes have the meaning given here. *: point of attachment. PyrS2″ = (S)-3-amino-1-((pent-4-en-1-yloxy)carbonyl)pyrrolidine-3-carboxylic acid (stapling residue), C=CCCCOC(=O)N1CC[C@@](N[*:1])(C(=O)[*:2])C1; B5(16) = 2-amino-2-(pent-4-en-1-yl)hept-6-enoic acid = 2,2-bis(4-pentenyl)glycine (stitching residue), C=CCCCC(CCCC=C)(N[*:1])C(=O)[*:2]; B5(4) = 2,2-bis(4-pentenyl)glycine = 2-amino-2-(pent-4-en-1-yl)hept-6-enoic acid (stitching residue), C=CCCCC(CCCC=C)(N[*:1])C(=O)[*:2]; PyrS2 = (S)-3-amino-1-((pent-4-en-1-yloxy)carbonyl)pyrrolidine-3-carboxylic acid, C=CCCCOC(=O)N1CC[C@@](N[*:1])(C(=O)[*:2])C1; B5(19) = 2-amino-2-(pent-4-en-1-yl)hept-6-enoic acid (bis(4-pentenyl)glycine), C=CCCCC(CCCC=C)(N[*:1])C(=O)[*:2]; Phe(2-Cl) = N[C@@H](Cc1ccccc1Cl)C(=O)O; Bta = N[C@@H](Cc1csc2ccccc12)C(=O)O; αAllylPro = C=CC[C@@]1(C(=O)O)CCCN1; tBuAla = CC(C)(C)C[C@H](N)C(=O)O; S8 = C=CCCCCCC[C@](C)(N)C(=O)O; Alaol = C[C@@H](CO)N*; iPr = CC(C)*

For experiment [1], the target named is T1, full-length beta-Catenin (Uniprot ID P35222) (Homo sapiens (Human), UniProt P35222 2-781).
T1 construct: The FP assay uses 10 nM 'full-length beta-Catenin (Uniprot ID P35222)'; also called bCat; B-Catenin
T1 sequence: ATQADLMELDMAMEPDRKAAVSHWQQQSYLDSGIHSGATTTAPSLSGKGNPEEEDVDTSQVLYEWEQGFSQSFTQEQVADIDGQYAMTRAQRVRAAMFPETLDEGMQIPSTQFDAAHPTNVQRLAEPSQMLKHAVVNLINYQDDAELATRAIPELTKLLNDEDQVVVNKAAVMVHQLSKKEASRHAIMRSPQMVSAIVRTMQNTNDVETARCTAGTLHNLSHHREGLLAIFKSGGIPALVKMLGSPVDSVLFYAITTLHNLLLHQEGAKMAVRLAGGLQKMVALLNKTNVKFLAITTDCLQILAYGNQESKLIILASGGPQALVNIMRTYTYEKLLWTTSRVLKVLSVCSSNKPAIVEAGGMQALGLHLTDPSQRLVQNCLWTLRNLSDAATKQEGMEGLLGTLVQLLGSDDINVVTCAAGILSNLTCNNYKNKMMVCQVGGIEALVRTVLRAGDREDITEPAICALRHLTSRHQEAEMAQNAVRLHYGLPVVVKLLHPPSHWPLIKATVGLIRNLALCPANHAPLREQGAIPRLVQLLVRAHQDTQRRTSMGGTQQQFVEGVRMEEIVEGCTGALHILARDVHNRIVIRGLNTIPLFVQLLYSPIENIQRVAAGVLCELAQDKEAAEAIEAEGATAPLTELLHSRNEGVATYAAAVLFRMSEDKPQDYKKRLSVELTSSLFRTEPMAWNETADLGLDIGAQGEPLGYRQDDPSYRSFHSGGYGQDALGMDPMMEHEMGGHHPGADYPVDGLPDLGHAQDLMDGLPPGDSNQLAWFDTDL
Description: fluorescence polarization competition; 10 nM full-length beta-catenin, 10 nM 5FAM-TCF4(10-53) probe. Here is the method: (§1) The plate was incubated protected from light for 60 minutes at 20° C. prior to read. Reads were performed on a CLARIOstar plate reader (BMG Labtech) in duplicate, and data were fitted to a 1:1 binding model with hill slope using an in-house script. All provided concentrations are final concentrations.
In general terms: Fluorescence polarisation rises when a labelled molecule tumbles more slowly, as on binding a larger partner.

In experiment [2] the target is T2, B-cat-Halo (beta-catenin HaloTag construct expressed in HEK293 cells) (UniProt P35222 1-781, HaloTag NanoBRET 618 Ligand bound in the assay).
T2 construct: Transfected NanoBRET construct; not shown: HaloTag
T2 sequence (looked up): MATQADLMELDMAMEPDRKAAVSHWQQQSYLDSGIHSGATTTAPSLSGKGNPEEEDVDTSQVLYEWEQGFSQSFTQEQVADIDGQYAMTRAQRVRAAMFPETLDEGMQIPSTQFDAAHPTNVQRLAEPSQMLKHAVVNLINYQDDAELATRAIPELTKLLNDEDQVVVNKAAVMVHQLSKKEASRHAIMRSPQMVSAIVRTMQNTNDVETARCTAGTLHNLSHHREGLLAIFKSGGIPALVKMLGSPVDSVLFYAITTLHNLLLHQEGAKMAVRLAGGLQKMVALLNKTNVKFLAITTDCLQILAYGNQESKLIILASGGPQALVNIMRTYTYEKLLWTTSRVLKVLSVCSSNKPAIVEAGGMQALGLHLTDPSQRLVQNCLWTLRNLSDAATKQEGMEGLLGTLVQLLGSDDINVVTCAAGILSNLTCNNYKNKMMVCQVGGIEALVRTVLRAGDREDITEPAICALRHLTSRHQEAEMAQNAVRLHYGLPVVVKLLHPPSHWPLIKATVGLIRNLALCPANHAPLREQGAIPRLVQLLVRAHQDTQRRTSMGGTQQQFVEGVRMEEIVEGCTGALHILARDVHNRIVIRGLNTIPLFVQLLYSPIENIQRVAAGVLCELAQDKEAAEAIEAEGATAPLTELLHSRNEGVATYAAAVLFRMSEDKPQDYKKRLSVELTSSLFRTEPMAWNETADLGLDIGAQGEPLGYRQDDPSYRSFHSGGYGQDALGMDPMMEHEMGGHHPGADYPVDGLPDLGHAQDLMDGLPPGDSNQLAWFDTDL
Put plainly: NanoBRET Abs IC50 in HEK293 cells; B-cat-Halo with competitor TCF4-Luc.

The target of experiment [3] is T3, full-length beta-Catenin (Uniprot ID P35222) (Homo sapiens (Human), UniProt P35222 2-781).
T3 construct: Given as 'full-length beta-Catenin (Uniprot ID P35222)' in the fluorescence polarization protocol; also called bCat; B-Catenin
T3 sequence: T1 sequence
Description: fluorescence polarization competition; full-length beta-catenin, competitor 5FAM-TCF4 10-53 probe. Here is the method:
as §1

Experiment [4] concerns the target T4, full-length beta-Catenin (Uniprot ID P35222) (Homo sapiens (Human), UniProt P35222 1-781).
T4 construct: The assay text says 'full-length beta-Catenin (Uniprot ID P35222)'; No tags are stated for the FP assay; also called bCat; B-Catenin
T4 sequence: T2 sequence (looked up)
Description: fluorescence polarization competition; 10 nM full-length beta-catenin with 10 nM 5FAM-labeled TCF4 (residues 10-53) probe as competitor. The method, then:
as §1

Experiment [5] has as its target T5, full-length beta-Catenin (Uniprot ID P35222) (Homo sapiens (Human), UniProt P35222 2-781).
T5 construct: The FP protocol names full-length beta-Catenin (Uniprot ID P35222); also called bCat; B-Catenin
T5 sequence: T1 sequence
Put plainly: fluorescence polarization competition; full-length beta-catenin, 5FAM-TCF4(10-53) probe as competitor. The method, then:
as §1

Experiment [6] deals with T6, B-cat-Halo (beta-catenin HaloTag NanoBRET construct expressed in HEK293 cells) (UniProt P35222 1-781, HaloTag NanoBRET 618 Ligand bound in the assay).
T6 sequence (looked up): T2 sequence (looked up)
Description: cell-based or functional assay.

The target of experiment [7] is T7, full-length beta-Catenin (Uniprot ID P35222) (Homo sapiens (Human), UniProt P35222 1-781).
T7 construct: Tags of the recombinant protein are not described for the FP assay; also called bCat; B-Catenin
T7 sequence: T2 sequence (looked up)
Put plainly: fluorescence polarization competition; full-length beta-catenin, competitor 5FAM-TCF4(10-53) probe. The gist of the method:
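Plate incubated 60 minutes at 20° C. protected from light before reading. Concentrations given are final.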

A further experiment addresses T8, B-cat-Halo (UniProt P35222 1-781, HaloTag NanoBRET 618 Ligand bound to the HaloTag in the assay).
T8 construct: Transfected into HEK293 cells for the NanoBRET assay; intracellular; also called beta-catenin HaloTag fusion; not shown: HaloTag
T8 sequence (looked up): T2 sequence (looked up)
Put plainly: NanoBRET absolute IC50 in HEK293 cells; Bcat-Halo, competitor TCF4-Luc. (Bioluminescence resonance energy transfer reports proximity on the nanometre scale.)

In experiment [8] the target is T9, B-cat-Halo (beta-catenin HaloTag NanoBRET construct expressed in HEK293 cells) (Homo sapiens (Human), UniProt P35222 1-781).
T9 sequence: T2 sequence (looked up)
Put plainly: cell-based or functional assay.

For experiment [9], the target named is T10, beta-catenin in DLD1 TCF/LEF luciferase reporter cells (Homo sapiens (Human), UniProt P35222 2-781).
T10 sequence: T1 sequence
Put plainly: cell-based or functional assay.

B1: I-1647 (peptide)
peptide: Ac-[αAllylPro]NY[B5(16)]DQK(iPr)AFL[PyrS2]F[Bta]Q-NH2
modifications: staple 1-4, 4-11
notes: Stapled peptide; also called Ac-PL3-Asn-Tyr-B5-Asp-Gln-iPrLys-Ala-Phe-Leu-PyrS2-Phe-BztA-Gln-NH2
Take B1: in [1], the IC50 (in general, the concentration that gives 50% inhibition) stood at 2.35 µM. For Ac-[αAllylPro]DL[B5(19)]DDAAFL[PyrS2]F[Bta]Q-NH2 (staple 1-4, 4-11) [I-1402], the results for the IC50 in experiment [2] and in [3] were 27.1 µM and 0.009 µM, respectively.

B2: I-217 (peptide)
peptide: Ac-[αAllylPro]DA[B5(4)]DEAAXV[S8]FWQ-NH2
modifications: staple 1-4, 4-11; not fully specified (residue 9); printed as Ac-PL3-Asp-Ala-B5-Asp-Glu-Ala-Ala-MeTyr-Val-S8-Phe-Trp-Gln-NH2
notes: Stapled (stitched) peptide; also called Ac-PL3-Asp-Ala-B5-Asp-Glu-Ala-Ala-MeTyr-Val-S8-Phe-Trp-Gln-NH2
Turning to B2, the IC50 in experiment [4] worked out at 1.96 µM.

B3: I-1811 (peptide)
peptide: Ac-[αAllylPro]DL[B5(19)]DDAAFL[PyrS2]FWQ-NH2
modifications: staple 1-4, 4-11
notes: Stapled peptide; also called Ac-PL3-Asp-Leu-B5-Asp-Asp-Ala-Ala-Phe-Leu-PyrS2-Phe-Trp-Gln-NH2
Regarding B3, in [5], the IC50 was 0.156 µM. Moreover, in [6], the “NanoBRET Abs IC50” value was found to be 32.3 µM. With Ac-[αAllylPro]DL[B5(4)]DEAAFQ[S8]F[Bta]Q-NH2 (staple 1-4, 4-11) [I-1458], the IC50 turned out to be 0.026 µM in experiment [7] and 18.1 µM with B-cat-Halo. Regarding Ac-[αAllylPro]D[tBuAla][B5(4)]DDAAFT[PyrS2″][Phe(2-Cl)][Bta]-Alaol (staple 1-4, 4-11; also: C-terminal Alao1 group, meaning not given here) [I-1246], the “NanoBRET Abs IC50” value in [8] amounted to 24.3 µM. In addition, the “DLD1 4% Abs IC50” value in [9] was determined as 16.2 µM.
